From PMC5689134, “Detailed Analysis of Insulin Absorption Variability and the Tissue Response to Continuous Subcutaneous Insulin Infusion Catheter Implantation in Swine” (Diabetes Technology & Therapeutics, 2017)

Test system: subcutaneous tissue
Experiment: Tissue histology surrounding CSII catheters, pathologist grading
Format: in vivo, swine
Details: for Tissue histopathology compared with catheters infused with saline or not infused: day 5 of CSII infusion, result in words
Procedure: The swine were euthanized after completion of the third PK study on day 5. A 50 μL bolus of methylene blue dye was then infused into the CCs and ICs to determine whether dye migrated onto the skin surface. The skin and subcutaneous tissue surrounding the 72 catheters were excised and fixed in 10% formalin for 3 days. The tissue was grossed and processed using a long dehydration protocol for fatty tissue.[21] Specimens were sectioned perpendicular or parallel to the skin surface depending on the location and angle of the cannula in the excised tissue specimen. Four-micrometer-thick tissue sections were stained with hematoxylin and eosin (nuclei are stained blue/purple, extracellular matrix [ECM] and cytoplasm are stained in pink), Masson's trichrome (collagen/connective tissue is stained blue, muscle fibers and erythrocytes are stained bright red, and cytoplasm is stained pink), and a reticulin stain (type III collagen is stained silver).
A surgical pathologist analyzed the stained tissue for no, mild, moderate, or severe (grades 0, 1, 2, or 3, respectively) hemorrhage, reticular fiber disruption, fibrin deposition, fat necrosis, and collagen deposition compared with unaffected tissue. This grading system was newly established by the lead pathologist of this study who predefined these criteria before analyzing all samples. The pathologist remained blinded throughout the study. The size of the debris field was measured (mm) using the Aperio ScanScope image capture device and ImageScope software (Leica Biosystems). Topography of tissue planes was considered regular if subcutaneous tissue was pushed down evenly in the direction of the cannula tip and irregular or intermediate otherwise. Irregular or regular reservoir geometry described the shape of the debris field surrounding the catheter tip.
Fisher's exact test was used to evaluate the differences in histology profiles of CCs and ICs. A chi-squared test was applied to analyze differences in methylene blue dye leakage.

[1] = swine s.c. tissue, day 5, insulin-infused CSII catheters (CC + IC), count (percent in brackets)
[2] = swine s.c. tissue, day 5, insulin-infused CSII catheters (CC + IC), count (percent in brackets), P < 0.05 between infusion types
[3] = swine, day 5, insulin-infused CC, count (percent of 11 catheters)
[4] = swine, day 5, insulin-infused IC, count (percent of 12 catheters)

Substance: insulin lispro
- Collagen deposition at tip: catheters graded Mild [1]: 16 (66.7)
- Collagen deposition at tip: catheters graded Moderate [1]: 5 (20.8)
- Collagen deposition at tip: catheters graded None [1]: 2 (8.3)
- Collagen deposition at tip: catheters graded Severe [1]: 1 (4.2)
- Fat Necrosis: catheters graded Mild [1]: 5 (20.8)
- Fat Necrosis: catheters graded Moderate [1]: 12 (50.0)
- Fat Necrosis: catheters graded None [1]: 1 (4.2)
- Fat Necrosis: catheters graded Severe [1]: 6 (25.0)
- Hemorrhage at tip base: catheters graded Mild [1]: 13 (54.2)
- Hemorrhage at tip base: catheters graded Moderate [1]: 10 (41.7)
- Hemorrhage at tip base: catheters graded None [1]: 1 (4.2)
- Hemorrhage at tip base: catheters graded Severe [1]: 0
- Reticular Fiber Disruption: catheters graded Mild [1]: 9 (37.5)
- Reticular Fiber Disruption: catheters graded Moderate [1]: 6 (25.0)
- Reticular Fiber Disruption: catheters graded None [1]: 1 (4.2)
- Reticular Fiber Disruption: catheters graded Severe [1]: 8 (33.3)
- Fibrin Deposition in Reservoir: catheters graded Mild [2]: 2 (8.3)
- Fibrin Deposition in Reservoir: catheters graded None [2]: 1 (4.2)
- Fibrin deposition in reservoir: catheters graded Moderate [2]: 11 (45.8)
- Fibrin deposition in reservoir: catheters graded Severe [2]: 10 (41.7)
- Tissue histopathology compared with catheters infused with saline or not infused (swine s.c. tissue): increased fibrin
- Tissue histopathology compared with catheters infused with saline or not infused (swine s.c. tissue, listed as lispro insulin): greater amount of fibrin in the reservoir
- Collagen Deposition at Tip: catheters graded Mild [3]: 9 (82%)
- Collagen Deposition at Tip: catheters graded Moderate [3]: 2 (18%)
- Collagen Deposition at Tip: catheters graded None [3]: 0
- Collagen Deposition at Tip: catheters graded Severe [3]: 0
- Fat Necrosis: catheters graded Mild [3]: 4 (36%)
- Fat Necrosis: catheters graded Moderate [3]: 7 (64%)
- Fat Necrosis: catheters graded None [3]: 0
- Fat Necrosis: catheters graded Severe [3]: 0
- Fibrin Deposition in Reservoir: catheters graded Mild [3]: 0
- Fibrin Deposition in Reservoir: catheters graded None [3]: 0
- Fibrin deposition in reservoir: catheters graded Moderate [3]: 3 (27%)
- Hemorrhage at Tip Base: catheters graded Mild [3]: 7 (64%)
- Hemorrhage at Tip Base: catheters graded Moderate [3]: 4 (36%)
- Hemorrhage at Tip Base: catheters graded None [3]: 0
- Hemorrhage at Tip Base: catheters graded Severe [3]: 0
- Reticular Fiber Disruption: catheters graded Mild [3]: 9 (82%)
- Reticular Fiber Disruption: catheters graded Moderate [3]: 2 (18%)
- Reticular Fiber Disruption: catheters graded None [3]: 0
- Reticular Fiber Disruption: catheters graded Severe [3]: 0
- Collagen Deposition at Tip: catheters graded Mild [4]: 7 (58%)
- Collagen Deposition at Tip: catheters graded Moderate [4]: 3 (25%)
- Collagen Deposition at Tip: catheters graded None [4]: 1 (8%)
- Collagen Deposition at Tip: catheters graded Severe [4]: 1 (8%)
- Fat Necrosis: catheters graded Mild [4]: 1 (8%)
- Fat Necrosis: catheters graded Moderate [4]: 5 (42%)
- Fat Necrosis: catheters graded None [4]: 0
- Fat Necrosis: catheters graded Severe [4]: 6 (50%)
- Fibrin Deposition in Reservoir: catheters graded Mild [4]: 2 (17%)
- Fibrin Deposition in Reservoir: catheters graded None [4]: 0
- Fibrin deposition in reservoir: catheters graded Severe [4]: 2 (17%)
- Hemorrhage at Tip Base: catheters graded Mild [4]: 6 (50%)
- Hemorrhage at Tip Base: catheters graded Moderate [4]: 6 (50%)
- Hemorrhage at Tip Base: catheters graded None [4]: 0
- Hemorrhage at Tip Base: catheters graded Severe [4]: 0
- Reticular Fiber Disruption: catheters graded Mild [4]: 0
- Reticular Fiber Disruption: catheters graded Moderate [4]: 4 (33%)
- Reticular Fiber Disruption: catheters graded None [4]: 0
- Reticular Fiber Disruption: catheters graded Severe [4]: 8 (67%)
